Test results as given in patent publication US8796209B2, “Compositions and methods related to anti-FGF agents” (The Regents of the University of California, priority 2005, dated 2014).

What was measured:
integrin αvβ3 = molecular target: T1, integrin αvβ3 (Homo sapiens, UniProt P05106+P06756); test: Soluble integrin binding assay (ELISA-type), soluble αvβ3 on immobilized FGF; conditions: coated at 10 μg/ml; soluble αvβ3 5 μg/ml, 1 mM MnCl2
T1 construct: using the soluble αv and β3 expression constructs provided by Tim Springer; made in house; host or cells: CHO K1
T1 sequence (P06756 31-992 limits assumed): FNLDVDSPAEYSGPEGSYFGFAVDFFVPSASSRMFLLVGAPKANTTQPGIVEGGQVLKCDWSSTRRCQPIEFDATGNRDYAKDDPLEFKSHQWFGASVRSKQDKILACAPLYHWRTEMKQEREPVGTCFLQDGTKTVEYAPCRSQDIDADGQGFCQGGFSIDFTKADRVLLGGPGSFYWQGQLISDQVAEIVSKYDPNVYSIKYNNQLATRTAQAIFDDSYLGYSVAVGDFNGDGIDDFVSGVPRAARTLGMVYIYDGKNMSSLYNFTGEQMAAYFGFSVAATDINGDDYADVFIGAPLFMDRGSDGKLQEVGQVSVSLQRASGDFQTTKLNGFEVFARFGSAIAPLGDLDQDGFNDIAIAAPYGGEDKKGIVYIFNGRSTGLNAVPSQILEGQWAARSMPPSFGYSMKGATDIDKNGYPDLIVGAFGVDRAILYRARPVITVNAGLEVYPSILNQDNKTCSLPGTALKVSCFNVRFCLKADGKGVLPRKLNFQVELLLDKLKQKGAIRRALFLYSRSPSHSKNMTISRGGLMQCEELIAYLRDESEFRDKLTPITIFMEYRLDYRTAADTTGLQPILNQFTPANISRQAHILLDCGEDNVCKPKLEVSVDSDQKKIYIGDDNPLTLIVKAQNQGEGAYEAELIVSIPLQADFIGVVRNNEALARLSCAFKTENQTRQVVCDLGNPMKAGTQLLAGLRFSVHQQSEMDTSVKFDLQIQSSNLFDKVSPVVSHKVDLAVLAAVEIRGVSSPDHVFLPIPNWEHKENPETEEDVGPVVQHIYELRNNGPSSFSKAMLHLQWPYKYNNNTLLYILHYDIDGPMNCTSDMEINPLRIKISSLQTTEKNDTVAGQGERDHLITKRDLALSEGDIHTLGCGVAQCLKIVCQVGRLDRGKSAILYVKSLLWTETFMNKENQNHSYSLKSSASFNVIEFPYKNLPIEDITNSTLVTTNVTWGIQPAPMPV
T1 sequence (P05106 27-718 limits assumed): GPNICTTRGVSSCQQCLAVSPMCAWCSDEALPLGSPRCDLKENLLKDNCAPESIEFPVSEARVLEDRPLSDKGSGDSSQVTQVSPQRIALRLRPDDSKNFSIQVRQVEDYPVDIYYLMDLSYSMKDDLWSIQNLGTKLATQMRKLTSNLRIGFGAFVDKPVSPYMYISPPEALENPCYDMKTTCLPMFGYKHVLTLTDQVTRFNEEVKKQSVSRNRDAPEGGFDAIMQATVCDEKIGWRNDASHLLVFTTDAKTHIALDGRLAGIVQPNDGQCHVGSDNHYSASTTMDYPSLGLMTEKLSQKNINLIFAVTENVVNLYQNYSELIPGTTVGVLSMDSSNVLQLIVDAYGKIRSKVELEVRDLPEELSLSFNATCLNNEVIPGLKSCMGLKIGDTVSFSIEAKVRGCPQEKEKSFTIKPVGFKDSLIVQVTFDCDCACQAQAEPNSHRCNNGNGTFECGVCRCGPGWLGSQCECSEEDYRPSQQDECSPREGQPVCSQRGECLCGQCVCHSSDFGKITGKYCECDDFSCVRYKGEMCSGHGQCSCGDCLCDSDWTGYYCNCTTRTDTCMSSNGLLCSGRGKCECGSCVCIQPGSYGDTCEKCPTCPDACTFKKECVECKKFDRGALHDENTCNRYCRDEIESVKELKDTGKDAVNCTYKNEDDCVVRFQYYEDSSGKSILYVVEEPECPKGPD
Description: Wells of 96-well microtiter plates were coated with 10 μg/ml FGF-1 or FGF-2 and remaining protein binding sites were blocked with 1 mg/ml BSA. Recombinant soluble αvβ3 (50 μl/well at 5 μg/ml in Hepes-Tyrode buffer supplemented with 1 mM MnCl2) was added to wells and incubated for 1 h at room temperature. Soluble αvβ3 was incubated with 10 μg/ml 7E3 (white bar) or mouse IgG (black bar) for 10 min on ice prior to adding to the wells. BSA (circle) was used as a negative control. Data is shown as means+/−SD of triplicate experiments.
FGF-1 (10 μg/m) was heat-treated at indicated temperature for 10 min prior to immobilization. Binding of soluble αvβ3 was determined as described in FIG. 1. Data is shown as percent binding+/−SD of triplicate experiments.
Amino acid residues in the integrin-binding site or in the FGFR-binding site were mutated individually or in groups. Wild-type (diamond), R50E (open square), N33A (closed square), 4xE (circle), 3xA (triangle) were coated to a plastic plate various concentration as indicated and the binding of soluble αvβ3 was determined as described in FIG. 2. BSA (cross) was used as a negative control. […] “4xE” represents the K127E/K128E/K133E/R134E mutant. “3xA” represents the E102A/Y109A/Q110A mutant.
Binding assays were performed as previously described (Takagi et al., 2001). Native or heat-denatured FGF-1 in 0.1 M carbonate buffer, pH 9.4, were incubated in a polystyrene 96-well non-tissue culture plates surface overnight at 4° C. Unbound FGF-1 was removed, and 200 μl of 0.1% bovine serum albumin in PBS was added and incubated for 60 min at room temperature. The wells were washed with PBS and soluble integrin αvβ3 in 50 μl in Hepes-Tyrode buffer supplemented with 1 mM Mn^2+ were added to the wells and incubated at room temperature for 60 min. After non-bound soluble integrin were removed by rinsing the wells with the same buffer. Horseradish peroxidase (HRP) conjugated anti His-tag mouse IgG was added to well and incubated 60 min. Non-bound antibodies were removed by rinsing the wells with the same buffer, bound integrins were quantified by measuring the absorbance of 450 nm developed from adding the substrate (3,3′,5,5′-tetramethylbenzidine) of HRP unbound protein was aspirated, and the wells were washed with PBS three times.

ERK1/2 = test: MAP kinase (ERK1/2) activation, western blot; type: cell-based, mouse; conditions: 5 μg/ml heparin
Description: Serum starved Balb3T3 cells were stimulated with wild-type and mutant FGF-1s (5 ng/ml) in the presence or absence of 5 μg/ml heparin for 10 min at 37° C. Cell lysates were analyzed by western blotting with anti-phospho ERK1/2 (anti phospho-ERK). Total amount of ERK1/2 in each lane was determined by blotting with anti-ERK1/2. Controls contain medium alone (none) or medium containing 10% fetal calf serum (FCS).
Balb3T3 cells were grown to confluence and serum starved in DMEM supplemented with 0.4% fetal calf serum for 24 h, and stimulated with wild type and mutant FGF-1 (5 ng/ml) in the presence or absence of 5 μg/ml heparin for 10 min at 37° C. Cells were washed twice with ice-cold PBS and lysed with the lysis buffer (20 mM Tris-HCI pH 8.0, 120 mM NaCl, 5 mM EDTA, 0.5% Triton-X100, 1 mM PMSF, 1 mM DTT, 10 mM NaF, 1 mM Na3VO4, 10 μg/ml aprotinin). Cell lysates were separated on 4-12% NuPAGE Bis-Tris Gel (invitrogen). Proteins were then transferred to PVDF membranes (Milli-pore), probed with antibodies, and bound antibodies were detected by HRP-conjugated anti-mouse IgG and chemiluminescence HRP substrate (Pierce). The antibodies used were anti-phospho-ERK1/2, anti-ERK1/2 (Cell Signaling Technology).

FGF-1-αvβ3 interaction = molecular target: T2, FGF-1-αvβ3 interaction (Homo sapiens, UniProt P05106+P06756); test: Inhibition of FGF-1-αvβ3 interaction by γC; type: binding; conditions: immobilized FGF-1 10 μg/ml, increasing concentrations of soluble γC
T2 construct: using the soluble αv and β3 expression constructs provided by Tim Springer; made in house; host or cells: CHO K1 (integrin); E. coli BL21 (DE3) (FGF-1)
T2 sequence (P06756 31-992 limits assumed): as the sequence (P06756 31-992 limits assumed) above
T2 sequence (P05106 27-718 limits assumed): as the sequence (P05106 27-718 limits assumed) above
Description: FGF-1 (10 μg/m) was immobilized to the plastic plate. Soluble αvβ3 was added to the wells together with increasing concentrations of soluble γC. Binding was determined as described in A. Data is shown as percent binding+/−SD of triplicate experiments with no addition of γC as 100.
FGF-1 (10 μg/ml) was immobilized to wells of 96-well plates. Soluble αvβ3 integrin was added to the wells with various concentration of γC. Bound integrin was detected by using HRP-conjugated anti-6His antibodies and its substrate as described above.

Molecule: FGF-2: basic FGF, used as a positive control for αvβ3 binding
- binding of soluble αvβ3 to the immobilized protein (integrin αvβ3): bound

Molecule: heparin [reference compound]
- effect of heparin on FGF-1-induced ERK1/2 activation (ERK1/2): did not enhance

B1: γC: globular carboxyl-terminal domain of the fibrinogen γ-chain, a known ligand for αvβ3 (protein)
chain: KDCQDIANKGAKQSGLYFIKPLKANQQFLVYCEIDGSGNGWTVFQKRLDGSVDFKKNWIQYKEGFGHLSPTGTTEFWLGNEKIHLISTQSAIPYALRVELEDWNGRTSTADYAMFKVGPEADKYRLTYAYFAGGDAGDAFDGFDFGDDPSDKFFTSHNGMQFSTWDNDNDKFEGNCAEQDGSGWWMNKCHAGHLNGVYYQGGTYSKASTPNGYDNGIIWATWKTRWYSMKKTTMKIIPFNRLTIGEGQQHHLGGAKQAGDV
- blocking of FGF-1-αvβ3 interaction (FGF-1-αvβ3 interaction): effectively block
